This passage reports ELISA_avg results from patent US20250026849A1 (ARCELLX, published 2025).

Sequences and labels used below:
T1: CD123 (Homo sapiens (Human), UniProt P26951 19-305, limits assumed)
T1 construct: also called CD123-Signal
T1 sequence: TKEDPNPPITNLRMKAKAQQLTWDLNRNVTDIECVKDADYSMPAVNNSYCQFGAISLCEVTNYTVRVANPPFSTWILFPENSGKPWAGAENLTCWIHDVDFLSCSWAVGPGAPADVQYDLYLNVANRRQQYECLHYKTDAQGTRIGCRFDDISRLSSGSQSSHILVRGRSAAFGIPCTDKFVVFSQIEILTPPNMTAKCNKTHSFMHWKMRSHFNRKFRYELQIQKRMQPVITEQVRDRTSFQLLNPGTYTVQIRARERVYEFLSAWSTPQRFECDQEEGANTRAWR

T2: P26 (human, UniProt P02771 381-609, limits assumed)
T2 construct: also called AFP p26
T2 sequence: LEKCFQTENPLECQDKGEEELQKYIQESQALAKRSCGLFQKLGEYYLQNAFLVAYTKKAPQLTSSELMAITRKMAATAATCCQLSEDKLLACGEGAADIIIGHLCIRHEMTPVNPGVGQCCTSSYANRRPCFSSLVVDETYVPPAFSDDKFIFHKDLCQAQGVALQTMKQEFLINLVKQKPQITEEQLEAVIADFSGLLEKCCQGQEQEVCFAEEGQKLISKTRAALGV

B1: D domain SEQ ID NO: 670 (designed binder)
chain: MGSWWEFEDRLWAIEQRLDALGGSEAELAVFENSIAKFEDMLQVYKGKGNPEVEALHEEADAIIWELYAYRHN
B2: D domain SEQ ID NO: 660 (designed binder)
chain: MGSWYEFEQRLGAIEERLWALGGSEAELAAFEDIIAYFEYQLQSYKGKGNPEVEALDEEAWAIDDELWAYRHN
B3: D domain SEQ ID NO: 661 (designed binder)
chain: MGSWWEFEQRLDAIETRLWALGGSEAELAYFEHIIADFEDELQIYKGKGNPEVEALGWEAFAIDGELTAYRHN
B4: D domain SEQ ID NO: 672 (designed binder)
chain: MGSWWEFLDRLEAIEYRLQALGGSEAELAVFEWEIAMFEDHLQGYKGKGNPEVEALHSEAHAIISELSAYRHN
B5: D domain SEQ ID NO: 671 (designed binder)
chain: MGSWWEFEDRLWAIDRRLMALGGSEAELAVFEQMIAHFEQILQVYKGKGNPEVEALHFEAHAIGMELAAYRHN
B6: D domain SEQ ID NO: 664 (designed binder)
chain: MGSWVEFWDRLDAIEERLWALGGSEAELAEFEFMIAMFEQHLQEYKGKGNPEVEALIPEAGAIDKELTAYRHN
B7: D domain SEQ ID NO: 663 (designed binder)
chain: MGSWVEFYDRLEAIEIRLWALGGSEAELADFESFIAHFEDDLQAYKGKGNPEVEALMDEANAIVFELDAYRHN
B8: D domain SEQ ID NO: 668 (designed binder)
chain: MGSWYEFYWRLEAIEERLWALGGSEAELAEFEKAIATFEDQLQTYKGKGNPEVEALETEALAIHAELEAYRHN
B9: D domain SEQ ID NO: 667 (designed binder)
chain: MGSWHEFIWRLDAIEERLWALGGSEAELAWFETEIATFEAQLQDYKGKGNPEVEALEWEAIAIAWELDAYRHN
B10: D domain SEQ ID NO: 673 (designed binder)
chain: MGSWAEFEDRLAAIERRLEALGGSEAELADFESSIAWFEPDLQYYKGKGNPEVEALMYEAEAIFSELYAYRHN
B11: D domain SEQ ID NO: 662 (designed binder)
chain: MGSWFEFPYRLEAIEERLYALGGSEAELAQFEQFIAWFEMDLQDYKGKGNPEVEALWFEANAIVEELDAYRHN
B12: D domain SEQ ID NO: 665 (designed binder)
chain: MGSWDEFDARLWAIEERLWALGGSEAELAEFEFMIAAFEDVLQEYKGKGNPEVEALMGEANAIVMELDAYRHN
B13: D domain SEQ ID NO: 666 (designed binder)
chain: MGSWYEFWRRLDAIEERLWALGGSEAELAMFETDIAGFEWMLQLYKGKGNPEVEALEHEAWAINSELDAYRHN
B14: D domain SEQ ID NO: 669 (designed binder)
chain: MGSWFEFQWRLEAIEDRLWALGGSEAELAEFETIIAGFEEQLQVYKGKGNPEVEALEEEAMAIQTELHAYRHN
B15: D domain SEQ ID NO: 984 (designed binder)
chain: MGSWNNFKSSLASIKQVLEALGGSEAELAVFELQIAHFERELQYYKGKGNPEVEALRKEAAAIRDELQAYRHN
B16: D domain SEQ ID NO: 982 (designed binder)
chain: MGSWVVFKSSLAQIKILLEALGGSEAELAIFEVKIAHFEQELQEYKGKGNPEVEALRKEAAAIRDELQAYRHN
B17: D domain SEQ ID NO: 983 (designed binder)
chain: MGSWDQFKNSLASIKRVLEALGGSEAELAIFEVKIAHFEHFLQQYKGKGNPEVEALRKEAAAIRDELQAYRHN
B18: D domain SEQ ID NO: 981 (designed binder)
chain: MGSWHSFKQDLAYIKYLLEALGGSEAELAQFEELIAFFEYYLQTYKGKGNPEVEALRKEAAAIRDELQAYRHN
B19: D domain SEQ ID NO: 975 (designed binder)
chain: MGSWSVFKDDLAQIKDRLEALGGSEAELAQFELDIAWFEYVLQFYKGKGNPEVEALRKEAAAIRDELQAYRHN
B20: D domain SEQ ID NO: 976 (designed binder)
chain: MGSWAVFKDSLAHIKDVLEALGGSEAELALFEMDIAWFEYVLQDYKGKGNPEVEALRKEAAAIRDELQAYRHN
B21: D domain SEQ ID NO: 978 (designed binder)
chain: MGSWIHFKNDLAVIKDELEALGGSEAELARFEIMIAWFEDALQWYKGKGNPEVEALRKEAAAIRDELQAYRHN
B22: D domain SEQ ID NO: 979 (designed binder)
chain: MGSWMVFKQDLAEIKANLEALGGSEAELADFEFAIAWFEYELQWYKGKGNPEVEALRKEAAAIRDELQAYRHN
B23: D domain SEQ ID NO: 969 (designed binder)
chain: MGSWVLFKQDLAMIKQRLEALGGSEAELAMFEYDIAWFEHMLQYYKGKGNPEVEALRKEAAAIRDELQAYRHN
B24: D domain SEQ ID NO: 973 (designed binder)
chain: MGSWEIFKDDLASIKKVLEALGGSEAELALFESDIAWFELMLQYYKGKGNPEVEALRKEAAAIRDELQAYRHN
B25: D domain SEQ ID NO: 977 (designed binder)
chain: MGSWIAFKDHLAIIKQRLEALGGSEAELARFEFEIAWFEWMLQYYKGKGNPEVEALRKEAAAIRDELQAYRHN
B26: D domain SEQ ID NO: 967 (designed binder)
chain: MGSWYTFKGSLAEIKNRLEALGGSEAELAMFESDIAWFEFMLQFYKGKGNPEVEALRKEAAAIRDELQAYRHN
B27: D domain SEQ ID NO: 968 (designed binder)
chain: MGSWFTFKDDLAQIKNRLEALGGSEAELANFEMSIAWFEFMLQYYKGKGNPEVEALRKEAAAIRDELQAYRHN
B28: D domain SEQ ID NO: 971 (designed binder)
chain: MGSWSYFKEDLANIKSSLEALGGSEAELAWFESSIAWFEHTLQYYKGKGNPEVEALRKEAAAIRDELQAYRHN
B29: D domain SEQ ID NO: 974 (designed binder)
chain: MGSWSIFKDDLAVIKERLEALGGSEAELAHFEQDIAWFEHLLQYYKGKGNPEVEALRKEAAAIRDELQAYRHN
B30: D domain SEQ ID NO: 970 (designed binder)
chain: MGSWVEFKRDLANIKQRLEALGGSEAELAQFEMQIAWFEHTLQYYKGKGNPEVEALRKEAAAIRDELQAYRHN
B31: D domain SEQ ID NO: 980 (designed binder)
chain: MGSWKNFKLELALIKSKLEALGGSEAELAQFEADIAFFEWSLQWYKGKGNPEVEALRKEAAAIRDELQAYRHN

One experiment addresses T1, CD123. The experiment can be described thus: ELISA, format not described. More on the design: unit not given here. For orientation: In an ELISA, binding on a coated surface is turned into a signal by an enzyme label.
Take B1: the ELISA_avg was 4.4.

Take B2: the ELISA_avg came to 10.6. B3 returned an ELISA_avg of 4.7.

Regarding B4, the ELISA_avg is 3.1. Molecule B5 returned an ELISA_avg of 4.6. On the same count and under the same terms, the figure for B6 is 10.

Turning to B7, the ELISA_avg amounted to 4.

Molecule B8 yielded an ELISA_avg of 3.7. Still for that read-out and setting: to B9 belongs 3.3; to B10, 4.2; to B11, 3.1. Same read-out and setting: to B12 belongs 4.3; to B13, 3.6; to B14, 3.4.

The target of another experiment is T2, P26. As to the kind of experiment: ELISA, format not described. Details: unit not given here.
B15 had an ELISA_avg of 24.1.

As to B16, the ELISA_avg is 8.6. On the same count and under the same terms, the figure for B17 is 15.6; for B18 it is 25.6; for B19 it is 30.3. Same read-out and setting: the figure for B20 is 24.1; for B21 it is 17.9.

In the case of B22, the ELISA_avg was found to be 17.8. On to B23, for which the ELISA_avg came to 29.7. Still for that read-out and setting: the figure for B24 is 27.9; for B25 it is 29.9.

Molecule B26 registered an ELISA_avg of 32.3. Regarding B27, the ELISA_avg amounted to 30.8.

B28 had an ELISA_avg of 11.6. B29 yielded an ELISA_avg of 25.6.

B30 came in with an ELISA_avg of 30.4. In the case of B31, the ELISA_avg stood at 20.6.
